First the molecules themselves.
B1: CC3-hop (VHH)
VHH: EVQLQASGGGSVQAGGSLRLSCVTSQNLFEYYTMGWYRQVPGSQRERVALINNGGSTVAGSVEGRFTISRDHAKNSVYLQMNYLKPEDSAVYYCRAFGPADYWGQGTQVTVSS
notes: also called CC3 with the hop tail; original CC3-hop
B2: CC3-m5hop (VHH)
VHH: B1 VHH with Q3K
notes: Theoretical pI 8.40
B3: CC3-m2hop (VHH)
VHH: B1 VHH with Q5V, A6E, G16D, K85Q
notes: Theoretical pI 6.35
B4: CC3-m6hop (VHH)
VHH: B1 VHH with E1Q, Q3K
notes: Theoretical pI 8.75
B5: CC3-m9hop (VHH)
VHH: B1 VHH with E1Q, Q3K, E63K, P86R
notes: Theoretical pI 9.35; also called variant 9
B6: CC3-m3hop (VHH)
VHH: B1 VHH with Q5V, A6E, K85Q
notes: Theoretical pI 6.63
B7: CC3-m7hop (VHH)
VHH: B1 VHH with E1Q, Q3K, E63V
notes: Theoretical pI 9.0
B8: CC3-m8hop (VHH)
VHH: B1 VHH with E1Q, Q3K, E63K
notes: Theoretical pI 9.18; also called variant 8
B9: CC3-m4hop (VHH)
VHH: B1 VHH with Q5V, A6E
notes: Theoretical pI 7.04

Where a chain is given by its changes, count along the chain named.

The target in this assay is T1, CHIKV VLPs (Chikungunya virus, VLP strain not …, UniProt Q5XXP3).
T1 construct: also called CHIKV virus-like particles
T1 sequence (Q5XXP3 whole entry, looked up): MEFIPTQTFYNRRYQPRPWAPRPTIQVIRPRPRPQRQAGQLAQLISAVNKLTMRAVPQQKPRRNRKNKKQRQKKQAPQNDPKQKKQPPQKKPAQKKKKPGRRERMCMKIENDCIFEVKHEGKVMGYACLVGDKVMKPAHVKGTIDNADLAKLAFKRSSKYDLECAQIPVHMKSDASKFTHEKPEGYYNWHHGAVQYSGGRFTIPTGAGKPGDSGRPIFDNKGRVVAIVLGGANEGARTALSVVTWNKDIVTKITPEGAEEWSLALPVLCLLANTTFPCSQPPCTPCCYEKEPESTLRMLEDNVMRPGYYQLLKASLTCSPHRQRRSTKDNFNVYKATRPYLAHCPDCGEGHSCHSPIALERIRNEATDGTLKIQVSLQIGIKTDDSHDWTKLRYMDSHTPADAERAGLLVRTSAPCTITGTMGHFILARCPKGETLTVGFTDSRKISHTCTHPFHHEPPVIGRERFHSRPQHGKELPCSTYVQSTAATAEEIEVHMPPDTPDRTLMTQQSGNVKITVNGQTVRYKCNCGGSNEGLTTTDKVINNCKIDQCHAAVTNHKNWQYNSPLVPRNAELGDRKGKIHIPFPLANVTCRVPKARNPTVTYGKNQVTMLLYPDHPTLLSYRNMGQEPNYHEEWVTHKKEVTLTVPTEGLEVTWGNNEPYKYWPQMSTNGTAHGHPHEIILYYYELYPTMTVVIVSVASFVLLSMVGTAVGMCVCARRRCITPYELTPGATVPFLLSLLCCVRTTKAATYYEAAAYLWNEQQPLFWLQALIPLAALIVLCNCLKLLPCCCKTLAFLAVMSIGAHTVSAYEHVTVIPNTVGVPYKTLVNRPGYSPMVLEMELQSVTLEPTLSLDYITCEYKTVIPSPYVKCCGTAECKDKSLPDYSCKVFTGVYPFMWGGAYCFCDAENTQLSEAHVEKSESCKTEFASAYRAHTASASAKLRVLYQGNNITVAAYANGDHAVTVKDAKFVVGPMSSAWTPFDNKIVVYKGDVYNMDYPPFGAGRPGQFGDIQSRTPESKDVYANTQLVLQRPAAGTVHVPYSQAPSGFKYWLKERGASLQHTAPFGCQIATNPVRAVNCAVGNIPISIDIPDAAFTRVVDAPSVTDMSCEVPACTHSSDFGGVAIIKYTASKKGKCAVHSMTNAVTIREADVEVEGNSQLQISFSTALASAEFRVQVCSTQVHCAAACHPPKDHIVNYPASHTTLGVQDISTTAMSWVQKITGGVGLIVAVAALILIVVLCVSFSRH
Kind of assay: MagPlex direct binding assay. The conditions noted are these: both partners purified.
As to B1, the binding result is given as “binds”. On to B2, for which the binding result is on record as “binds”.

In the case of B3, the binding result was “binds”.

Take B4: the binding result was “binds”. The value for B5 was “binds”. In the case of B6, the binding result is reported as “binds”. The value for B7 was “binds”. For B8 the value was “binds”; for B9, “binds”.
